The results in this text go back to the supplement of paper PMC9170038.

The data set has as its system MS2 coat protein. Put plainly: apparent KD of MS2 coat protein; designed switch direction (-1 OFF switch, 1 ON switch): -1; higher = weaker reporter binding. The method, boiled down:
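Normalised cluster fluorescence was curve-fitted, and each design's median over clusters is its apparent KD. Before this, SNAP-549-labelled MS2 coat protein was titrated from 0.7 or 1.5 nM, doubling to 3 µM, over RNA switches transcribed on Illumina chips by stalled E. coli RNA polymerase. Titrations had no input, 200 uM small-molecule ligand, or an oligonucleotide input, and steps lasted 0.8–1.5 h (lowest) to 10–20 min (highest).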

Where [1] appears, read: input ligand: microRNA oligo, concentration not stated.
Where [2] appears, read: Eterna round: R95, input ligand: microRNA oligo, concentration not stated.
[3] abbreviates: Eterna round: R95, input ligand: FMN 200 uM.
[4] abbreviates: Eterna round: R95, input ligand: none.

Turning to “GCACGGAUUGUAGGAUAUCUGUGCGAUUAGCUCAGAGAAGGACACAUGAGGAUCACCCAUGUUACCUCAAUUGGCCUUCCGUGC [Eli exng1 - 031] (Eterna round: R96, puzzle: Exclusion NG 1)”, the “apparent KD of MS2 coat protein” value reads like this: (input ligand: FMN 200 uM) 128 nM; under setting [1], 70.7 nM; (input ligand: none) 116 nM.
As to “UAUUUGUCAGGAUAUGAGUCGUAGAACAAUAGUACUACGUCUCAGAAGGGACAUGAGGAUCACCCAUGUGCCUC [Fiskers Ex 4 Super Stable 44 mod 29] (Eterna round: R96, puzzle: Exclusion 4)”, the “apparent KD of MS2 coat protein” value by setting is: (input ligand: FMN 200 uM) 276 nM; under setting [1], 24.3 nM; (input ligand: none) 28.9 nM.
On to “ACUCCUCCUGUUAGGAUAUGCAUCGGGCUUCCGCAGCAGAAGGAACAUGAGGAUCACCCAUGUCAAAUAAAAUC [Inxebexe] (puzzle: Brourd's mod of Exclusion 4)”, for which the “apparent KD of MS2 coat protein” value under setting [2] is 18.9 nM.
For “UCUUUAUUUGUGAGGAUAUCGAUAAAAUGGAUUGUCGAGAAGGCACAUGAGGAUCACCCAUGUGUGGAACAGCA [JR_BMEx4_Sub024] (Eterna round: R97, puzzle: Brourd's mod of Exclusion 4)”, the “apparent KD of MS2 coat protein” value is, setting by setting: (input ligand: FMN 200 uM) 54.8 nM; (input ligand: none) 18.8 nM.
Take “CGAAGUAGAAACCGAUCCUACAUGAGGAUCACCCAUGUAGCAAGACGUGCACGCGAAGCUCGUCAGACUACCAGAAA [salish99_TOv1_r3_016] (puzzle: Sensor v3, turn-off variant 1)”: the “apparent KD of MS2 coat protein” value came out at 200 nM under setting [3], 213 nM under setting [2] and 304 nM under setting [4].
Take “UAAAGUCAAGGAUAUGGAAGUCCAAACAUGAGGAUCACCCAUGUAAACACAUUGGGAAGCCCAGAAGGUGGCCGUA [Eternabot (L2) Solution 31] (Eterna round: R97, puzzle: Exclusion 5)”: the “apparent KD of MS2 coat protein” value runs as follows: (input ligand: FMN 200 uM) 76.4 nM; (input ligand: none) 204 nM.
As to “AAUAACAGAGGAUAUGCGAAUAAAUAAAACUUUUUUUUUUAACAUGAGGAUCACCCAUGUAGAAGGCUGAUAUU [Ex2 #21] (Eterna round: R97, puzzle: Exclusion 2)”, the “apparent KD of MS2 coat protein” value amounted to 35.6 nM (input ligand: FMN 200 uM) and 37 nM (input ligand: none).
For “UUUUAACAUGAGGAUCACCCAUGUGAGGAUAUCGAAAUUUAUAUUAAUAUUAAUUUAACGAGAAGGCACAUUUU [JMF 31] (puzzle: Exclusion 1)”, under setting [2], the “apparent KD of MS2 coat protein” value is 88.5 nM.
Regarding “UAUGGUUAAGUCAGGAUAUACAUACAGAUAUCUGAGUAGAAGGGACAUGAGGAUCACCCAUGUAUGGUAGUGUU [Ex4 #54] (Eterna round: R97, puzzle: Brourd's mod of Exclusion 4)”, the “apparent KD of MS2 coat protein” value turned out to be 169 nM (input ligand: FMN 200 uM) and 76.3 nM (input ligand: none).
As to “AGAUAGUGCUGAGGAUAUCAGAAUAGAAAGAAAUGAGAAGGCGGACAUGAGGAUCACCCAUGUGAGGUCUUGAGACUACAUGGU [Prohibition 38 - Jieux - Exclusion NG 1] (Eterna round: R96, puzzle: Exclusion NG 1)”, the “apparent KD of MS2 coat protein” value runs as follows: (input ligand: FMN 200 uM) 210 nM; under setting [1], 65.8 nM; (input ligand: none) 77.3 nM.
Consider “CUUAAUUGUGACAUGGGUGACAUGAGGAUCACCCAUGUCACAAGCUUUUUGUUCGUCUUAUAAUUAACCCAUGUCAC [Stov1/13-B3] (Eterna round: R97, puzzle: Sensor, turn-off variant 1)”, for which the “apparent KD of MS2 coat protein” value was determined as 44.9 nM (input ligand: FMN 200 uM) and 52.7 nM (input ligand: none).
In the same order, the values of “GAUCAGUAAGGAUAUACAUGAGGAUCACCCAUGUGGAUGGCCGCGCAUUUCCAUUCAGGUAGAAGGUACUGAGU [Eternabot (L1) Solution 94] (Eterna round: R97, puzzle: Exclusion 3)” are 54.3 nM and 36.8 nM.
As to “AAAUCGGUAGAGGAUAUUGUACAGGAAACGGUGCGAGAAGGCUACACAUGAGGAUCACCCAUGUUAAAUAGCGA [EX6 #55] (Eterna round: R97, puzzle: Exclusion 6)”, the “apparent KD of MS2 coat protein” value runs as follows: (input ligand: FMN 200 uM) 17 nM; (input ligand: none) 15.8 nM.
“UUUAAUUUUUUUUUUUUACAAGCUUUUUGCUCGUCUUAUACAUGAGGAUCACCCAUGUGGAUGGAGGGUAAAUUAUC [JMF 85] (puzzle: Sensor v3, turn-off variant 2)”: the “apparent KD of MS2 coat protein” value under setting [3] came out at 14.4 nM, the “apparent KD of MS2 coat protein” value under setting [2] was 25.6 nM and the “apparent KD of MS2 coat protein” value under setting [4] came out at 16.9 nM.
In the case of “AAUACAAGCUAUUGAUCCCACAUGAGGAUCACCCAUGUAUAUGCCCGUGACACGUGCAUGACGAUAGCUCGUCUUAU [Sensor-V1 #60] (Eterna round: R97, puzzle: Sensor, turn-off variant 1)”, the “apparent KD of MS2 coat protein” value is, setting by setting: (input ligand: FMN 200 uM) 85.8 nM; (input ligand: none) 102 nM.
With “ACGUACAAGCCGAUCCUAAACAUGAGGAUCACCCAUGUGCUCGUUUUGUAAAGUACUAUCACGAAAGUGAUAGUACA (Eterna round: R97, puzzle: Sensor, turn-off variant 1)”, the “apparent KD of MS2 coat protein” value runs as follows: (input ligand: FMN 200 uM) 114 nM; (input ligand: none) 122 nM.
In the same order, the values of “CGUCUGUAAGGAUAUGGUUGCAUCAACAUGAGGAUCACCCAUGUAACUUGGGACUAGUGAUUAGAAGGUACGAACG [EX5 #59] (Eterna round: R97, puzzle: Exclusion 5)” are 218 nM and 255 nM.
Take “UCUGGUCGAGGAUAUACAUGAGGAUCACCCAUGUGGUUACGUGACGAUAGUCACGAAUGUAGAAGGCGACCAGA [E3/4-A2] (Eterna round: R97, puzzle: Exclusion 3)”: the “apparent KD of MS2 coat protein” value (input ligand: FMN 200 uM) worked out at 326 nM and the “apparent KD of MS2 coat protein” value (input ligand: none) turned out to be 230 nM.
For the sequence “CUCAUGUGAGGAUAUGAGUUAGGGCGAGAGCCCUAUGAAAAUUAGAAGGCACAUGAGGAUCACCCAUGUGAGAA [Rerige] (Eterna round: R97, puzzle: Exclusion 4)”, the “apparent KD of MS2 coat protein” value came out at 211 nM (input ligand: FMN 200 uM) and 169 nM (input ligand: none).
On to “CUCUUGGCAGGAUAUGCUUUUUUAGACAUGAGGAUCACCCAUGUGAUGAAUAUUGGGUUCGCAGAAGGGCCUGAAU [JR_E5_Sub040] (puzzle: Exclusion 5)”, for which the “apparent KD of MS2 coat protein” value under setting [2] turned out to be 48.4 nM.
Consider “UGAGUGCUGCGAGGAUAUACAUGAGGAUCACCCAUGUAAUCGUGUGAGGCAAAGCCUCACACGAUGUAGAAGGCGCAGUACUCU [Mat - Exclusion NG 2 - Mod of JL - D23] (Eterna round: R96, puzzle: Exclusion NG 2)”, for which the “apparent KD of MS2 coat protein” value (input ligand: FMN 200 uM) came to 12.8 nM, the “apparent KD of MS2 coat protein” value under setting [1] is 11.4 nM and the “apparent KD of MS2 coat protein” value (input ligand: none) was 18.2 nM.
Taken in the same sequence, the figures for “GUCAGCUCGUGAGGAUAUACAUGAGGAUCACCCAUGUGAUCAAUAGCAGCUUCGGCUGCAUACAUGUAGAAGGCACGAGCUGAC [ENG2/6-A1] (Eterna round: R96, puzzle: Exclusion NG 2)” were 22.4 nM, 19.7 nM and 28.5 nM.
Consider “UCCUUACUGGUCAGGAUAUACAUUCGCGGGUGGGUGUAGAAGGGACAUGAGGAUCACCCAUGUACGUUACAUCC [alecazam54g] (Eterna round: R97, puzzle: Brourd's mod of Exclusion 4)”, for which the “apparent KD of MS2 coat protein” value is, setting by setting: (input ligand: FMN 200 uM) 18 nM; (input ligand: none) 16 nM.
In the case of “UUAACAUGCUGGUGAUCAUACAUGAGGAUCACCCAUGUAACAAGCUUUUUGUUCGUCUUAUAAUUUAAGAUCACCAG [Stov1/7-B1] (Eterna round: R97, puzzle: Sensor, turn-off variant 1)”, the “apparent KD of MS2 coat protein” value was 21.6 nM (input ligand: FMN 200 uM) and 20.3 nM (input ligand: none).
In the case of “GUAAAUCAUGUAGGAUAUGCAUAGCAAAGCUAUGCAGAAGGACAUGAGGAUCACCCAUGUCAUUCCGUCUGGAGACAGACGGGA [Mat - Exclusion NG 1 - Mod of JL - D58] (Eterna round: R96, puzzle: Exclusion NG 1)”, the “apparent KD of MS2 coat protein” value came out at 270 nM (input ligand: FMN 200 uM), 22.5 nM under setting [1] and 36.7 nM (input ligand: none).
In the case of “GACUUCUCUGAGGAUAUUGCAUCACCCGAUCUAUAAGAAGGCAGAACAUGAGGAUCACCCAUGUGGGUUUCUAG [Bingo-Bango-27] (Eterna round: R97, puzzle: Exclusion 6)”, the “apparent KD of MS2 coat protein” value amounted to 40.6 nM (input ligand: FMN 200 uM) and 29.7 nM (input ligand: none).
Turning to “CUGAUGUCAGGAUAUCAGAAAAGGUGCGAGGACGCACCAAAUGAGAAGGGACAUGAGGAUCACCCAUGUAAAAC [Inbeenen] (puzzle: Exclusion 4)”, under setting [2], the “apparent KD of MS2 coat protein” value amounted to 19.2 nM.
On to “AUAGCUCGUGUUAGGAUAUCCGCAUAUUUUACAUAGGAGAAGGAACAUGAGGAUCACCCAUGUAAUAGAAAAGA [Maenri] (puzzle: Brourd's mod of Exclusion 4)”, for which the “apparent KD of MS2 coat protein” value by setting is: under setting [3], 138 nM; under setting [2], 101 nM; under setting [4], 74.7 nM.
As for “UUGUUGUAUGUAGGAUAUGCAUAUUAUUGUUAUGCAGAAGGACAUGAGGAUCACCCAUGUAUAUUAUUAUUAUAUGUUAUAUAU [Title] (Eterna round: R96, puzzle: Exclusion NG 1)”, the “apparent KD of MS2 coat protein” value (input ligand: FMN 200 uM) turned out to be 35.1 nM, the “apparent KD of MS2 coat protein” value under setting [1] was found to be 21 nM and the “apparent KD of MS2 coat protein” value (input ligand: none) stood at 28 nM.
“GGUACUCAAAGAGUACCAAUACGAACAUGAGGAUCACCCAUGUAGGAUAUGCUACUCAAAGAGUAGCAGAAGGACGUGUACCUU [Far Half Aptamer v1] (Eterna round: R96, puzzle: Exclusion NG 3)”: under setting [1], the “apparent KD of MS2 coat protein” value was found to be 18.5 nM.
“AAAAAGACAGGAUAUACAUGAGGAUCACCCAUGUGAAACAAAAUAAAAUAAAAUAAAAGUAGAAGGGUCAAAAA [Exclusion 3 #2] (puzzle: Exclusion 3)”: the “apparent KD of MS2 coat protein” value runs as follows: under setting [3], 33.8 nM; under setting [2], 31.9 nM; under setting [4], 31.7 nM.
